Reference: US11542537B2, “High-purity steviol glycosides” (PureCircle Sdn Bhd, priority 2012, dated 2023)

B1: S115N05 A7: UGTSL, Solanum lycopersicum glycosyltransferase, SEQ ID 5; S129N04 is the sample of the in-vivo produced enzyme (protein, listed as Solanum lycopersicum)
chain: MSPKLHKELFFHSLYKKTRSNHTMATLKVLMFPFLAYGHISPYLNVAKKLADRGFLIYFCSTPINLKSTIEKIPEKYADSIHLIELHLPELPQLPPHYHTTNGLPPNLNQVLQKALKMSKPNFSKILQNLKPDLVIYDILQRWAKHVANEQNIPAVKLLTSGAAVFSYFFNVLKKPGVEFPFPGIYLRKIEQVRLSEMMSKSDKEKELEDDDDDDDLLVDGNMQIMLMSTSRTIEAKYIDFCTALTNWKVVPVGPPVQDLITNDVDDMELIDWLGTKDENSTVFVSFGSEYFLSKEDMEEVAFALELSNVNFIWVARFPKGEERNLEDALPKGFLERIGERGRVLDKFAPQPRILNHPSTGGFISHCGWNSAMESIDFGVPIIAMPMHLDQPMNARLIVELGVAVEIVRDDDGKIHRGEIAETLKGVITGKTGEKLRAKVRDISKNLKTIRDEEMDAAAEELIQLCRNGN
B2: UGT91D2: UDP-glucosyltransferase, Genbank ACE87855.1, in-vitro produced (protein, UniProt B3VI56 1-473, looked up)
UDP-glycosyltransferase 91D2: MATSDSIVDDRKQLHVATFPWLAFGHILPYLQLSKLIAEKGHKVSFLSTTRNIQRLSSHISPLINVVQLTLPRVQELPEDAEATTDVHPEDIPYLKKASDGLQPEVTRFLEQHSPDWIIYDYTHYWLPSIAASLGISRAHFSVTTPWAIAYMGPSADAMINGSDGRTTVEDLTTPPKWFPFPTKVCWRKHDLARLVPYKAPGISDGYRMGLVLKGSDCLLSKCYHEFGTQWLPLLETLHQVPVVPVGLLPPEVPGDEKDETWVSIKKWLDGKQKGSVVYVALGSEVLVSQTEVVELALGLELSGLPFVWAYRKPKGPAKSDSVELPDGFVERTRDRGLVWTSWAPQLRILSHESVCGFLTHCGSGSIVEGLMFGHPLIMLPIFGDQPLNARLLEDKQVGIEIPRNEEDGCLTKESVARSLRSVVVEKEGEIYKANARELSKIYNDTKVEKEYVSQFVDYLEKNTRAVAIDHES
modifications: in vitro produced
notes: UDP-glucosyltransferase, Genbank ACE87855.1, in-vitro produced
B3: UGTSL2: Solanum lycopersicum UDP-glucosyltransferase GI_460410132, SEQ ID 9, E. coli lysate (protein, listed as Escherichia coli)
chain: MATNLRVLMFPWLAYGHISPFLNIAKQLADRGFLIYLCSTRINLESIIKKIPEKYADSIHLIELQLPELPELPPHYHTTNGLPPHLNPTLHKALKMSKPNFSRILQNLKPDLLIYDVLQPWAEHVANEQNIPAGKLLTSCAAVFSYFFSFRKNPGVEFPFPAIHLPEVEKVKIREILAKEPEEGGRLDEGNKQMMLMCTSRTIEAKYIDYCTELCNWKVVPVGPPFQDLITNDADNKELIDWLGTKHENSTVFVSFGSEYFLSKEDMEEVAFALELSNVNFIWVARFPKGEERNLEDALPKGFLERIGERGRVLDKFAPQPRILNHPSTGGFISHCGWNSAMESIDFGVPIIAMPIHNDQPINAKLMVELGVAVEIVRDDDGKIHRGEIAETLKSVVTGETGEILRAKVREISKNLKSIRDEEMDAVAEELIQLCRNSNKSK

What was measured:
Assay type in all cases: biochemical
[1] = LC-MS of Rebaudioside A reaction mixtures of GI No. 460409128 (Example 23); settings: for Steviol glycoside conversion in reaction mixture: Reb A: remaining substrate
Description: The reaction mixtures representing GI No. 460409128, particularly the sample “12400 S115N05A7 T24h 130627ABA” of EXAMPLE 20 (hereinafter S115N05A7), and the sample “12400 S129N04 T45h 130712ABA” of EXAMPLE 22 (hereinafter S129N04) were additionally assayed by LC-MS to identify the unknown glycosides. An Agilent 1200 series HPLC system, equipped with binary pump (G1312B), autosampler (G1367D), thermostatted column compartment (G1316B), DAD detector (G1315C), connected with Agilent 6110A MSD, and interfaced with “LC/MSD Chemstation” software, was used.

[2] = LCMS of Rubusoside conversion products with UGTSL, UGTSL2, UGTLB; settings: UGTSL2 2 hrs, UGTLB 5 hrs, UGTSL 45 hrs
Description: (§1) Conversion of stevioside with UGTSL and UGTSL2 was conducted in similar manner to Example 28, and the conversion of rubusoside with UGTSL and UGTSL2 was conducted similarly to Example 29. Conversions of rubusoside and stevioside with UGTLB was conducted similarly to Example 32.
(§2) The reaction mixtures were analyzed by LCMS to determine all reaction products.

[3] = Catalytic test of in-vitro expressed UDP-glucosyltransferases, Rebaudioside A to Rebaudioside D (HPLC CAD); settings: 0.5 mM Rebaudioside A, 30° C., T24h sample
Description: 18 μL of plasmid solution (containing approximately 1.5 μg of plasmid) was used for in-vitro expression according to the Promega S30 T7 High-Yield Protein Expression System (ref: L1110) kit. The expression medium was produced as follows:
The prepared expression medium mix was added to the plasmid solution and the solution was allowed to incubate at 30° C. for 3 hours while mixing the mixture every 45 minutes. 5 μL of the mixture was frozen whereas the remainder was used for the catalytic test for the conversion of Rebaudioside A to Rebaudioside D.
430 μL of a reaction mixture containing 0.5 mM Rebaudioside A, 3 mM MgCl2, 50 mM phosphate buffer (pH7.2) and 2.5 mM UDP-glucose was added to a 1.5 mL sterile microtube. 52 μL of the enzyme expression medium was added and the resulting mixture was allowed to react at 30° C. for 24 hours. 125 μL samples were taken after 2 hours, 16 hours and 24 hours and added to a 115 μL of 60% methanol and 10 μL of 2 N H2SO4. The quenched sample was centrifuged at 18,000 g for 2 minutes at RT. 200 μL was transferred to an HPLC vial and analyzed.
The HPLC assay was performed as follows:
430 μL of a reaction mixture containing 0.5 mM Rebaudioside A, 3 mM MgCl2, 50 mM phosphate buffer (pH7.2) and 2.5 mM UDP-glucose was added to a 1.5 mL sterile microtube. 52 μL of the enzyme expression medium was added and the resulting mixture was allowed to react at 30° C. for 24 hours. 125 μL samples were taken after 2 hours, 16 hours and 24 hours and added to a 115 μL of 60% methanol and 10 μL of 2 N H2SO4. The quenched sample was centrifuged at 18,000 g for 2 minutes at RT.
The HPLC assay was performed as described in EXAMPLE 20.

[4] = Activity for Rubusoside to Rebaudioside E conversion (UGTSL, UGTSL2, UGTLB lysates); settings: based on initial concentration of Rubusoside; reaction time 45 h. (UGTSL), 2 h. (UGTSL2)
Description: Activity tests were performed at 3 mL scale with 600 μL of lysate for the transformation of Rubusoside using 0.5 mM of substrate, 2.5 mM of UDP-Glucose and 3 mM MgCl2 in 50 mM Sodium Phosphate buffer at pH 7.2. The HPLC assay was performed as described in EXAMPLE 20.
Activity tests were performed at 3 mL scale with 600 μL of lysate for the transformation of Rubusoside using 0.5 mM of substrate, 2.5 mM of UDP-Glucose and 3 mM MgCl2 in 50 mM Sodium Phosphate buffer at pH 7.2. Samples were taken and analyzed by HPLC. The corresponding chromatogram is depicted in FIG. 65.

[5] = LCMS of Stevioside conversion products with UGTSL, UGTSL2, UGTLB; settings: UGTSL2 2 hrs, UGTLB 2 hrs, UGTSL 22 hrs
Description: as §1, §2

[6] = Catalytic reaction with in-vitro produced UGT91D2, Rebaudioside A to Rebaudioside D; settings: in-vitro produced UGT91D2, 0.1 mM Rebaudioside A, after 120 h
Description: The total volume of the reaction was 0.5 mL with the following composition: 50 mM sodium phosphate buffer pH 7.2, 3 mM MgCl2, 3.8 mM UDP-glucose, 0.1 mM Rebaudioside A and 180 μL of in-vitro produced UGT91D2. The reactions were run at 30° C. on an orbitary shaker at 135 rpm. For each sample, 450 μL of reaction mixture was quenched with 45 μL of 2N H2SO4 and 405 μL of 60% MeOH. After centrifugation, the supernatant was analyzed by HPLC (CAD). HPLC indicated a 4.7% conversion of rebaudioside A to rebaudioside D after 120 h.

Row | Molecule | LC-MS, peak area ratio (%) Reb D [2] | LC-MS, peak area ratio (%) Reb E [2] | LC-MS, peak area ratio (%) Rub [2] | LC-MS, peak area ratio (%) Stev [2] | LC-MS, peak area ratio (%) Unknown peak #1 (MW804) RT 30.70 min [2] | LC-MS, peak area ratio (%) Unknown peak #2 (MW804) RT 49.50 min [2] | LC-MS, peak area ratio (%) Unknown peak #3 (MW804) RT 50.40 min [2] | Rubusoside conv. (reactiontime) [4] | LC-MS, peak area ratio (%) Reb D [5] | LC-MS, peak area ratio (%) Reb E [5] | LC-MS, peak area ratio (%) Stev [5] | LC-MS, peak area ratio (%) Unknown peak #1 (MW966) RT = 22.60 min [5] | LC-MS, peak area ratio (%) Unknown peak #2 (MW966) RT = 26.50 min [5] | also measured
1 | B1 | 3.45% | 35.88% | 7.82% | 2.37% | 20.38% | 27.75% | 2.35% | 70% (45 h.) | 0.54% | 49.68% | 25.24% | 3.97% | 20.56% | Steviol glycoside conversion in reaction mixture: Reb UNK ([1]; Reb UNK later identified as reb D2, listed as S115N05A7): 19.93 % area; Steviol glycoside conversion in reaction mixture: Reb UNK ([1]; Reb UNK later identified as reb D2, listed as S129N04): 21.22 % area; Steviol glycoside conversion in reaction mixture: Reb D ([1]; listed as S115N05A7): 20.35 % area; Steviol glycoside conversion in reaction mixture: Reb D ([1]; listed as S129N04): 23.73 % area; Steviol glycoside conversion in reaction mixture: Reb A ([1]; listed as S115N05A7): 53.24 % area; Steviol glycoside conversion in reaction mixture: Reb A ([1]; listed as S129N04): 49.00 % area; Steviol glycoside conversion in reaction mixture: Unknown@RT3.5 ([1]; unknown later identified as reb M2, listed as S115N05A7): 6.47 % area; Steviol glycoside conversion in reaction mixture: Unknown@RT3.5 ([1]; unknown later identified as reb M2, listed as S129N04): 6.05 % area; Steviol glycoside conversion in reaction mixture: Reb UNK ([3]; Reb UNK later identified as reb D2): 23.3 % area; Steviol glycoside conversion in reaction mixture: Reb A ([3]; remaining substrate): 46.7 % area
2 | B2 |  |  |  |  |  |  |  |  |  |  |  |  |  | conversion of rebaudioside A to rebaudioside D (HPLC) [6]: 4.7%
3 | B3 | 6.73% | 52.88% | 3.54% | 2.12% | 12.02% | 9.94% | 12.77% | 80% (2 h.) | 1.70% | 42.56% | 20.01% | 4.48% | 5.56% | LC-MS, peak area ratio (%) Unknown peak #3 (MW966) RT = 29.50 min [5]: 25.70%
